The target in series [1] is T1, Dbp5 (Saccharomyces cerevisiae, UniProt P20449).
T1 construct: full-length, N-terminal 6xHis tag, expressed in E. coli
T1 sequence (P20449 1-482): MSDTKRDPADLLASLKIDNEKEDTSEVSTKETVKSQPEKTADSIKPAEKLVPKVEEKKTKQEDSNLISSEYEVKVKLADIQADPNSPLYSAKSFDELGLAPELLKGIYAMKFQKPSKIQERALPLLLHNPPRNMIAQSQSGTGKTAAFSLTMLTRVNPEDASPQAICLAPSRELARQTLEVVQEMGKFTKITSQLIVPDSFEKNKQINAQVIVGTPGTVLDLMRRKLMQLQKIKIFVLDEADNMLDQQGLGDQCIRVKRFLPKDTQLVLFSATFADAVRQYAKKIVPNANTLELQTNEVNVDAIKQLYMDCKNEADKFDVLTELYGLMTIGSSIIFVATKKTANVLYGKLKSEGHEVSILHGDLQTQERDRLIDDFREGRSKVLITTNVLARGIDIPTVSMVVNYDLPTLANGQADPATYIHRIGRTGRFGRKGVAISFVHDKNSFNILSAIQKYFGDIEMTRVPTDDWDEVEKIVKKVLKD
Put plainly: kinetic competition with mantADP, FRET stopped flow. As to conditions: no RNA; 30 mM Hepes pH 7.5, 100 mM KCl, 2 mM MgCl2, 2 mM DTT, 25 °C. In kind it is binding. From the text:
kinetic competition with mantADP, FRET stopped flow on Dbp5

The target of series [2] is T1, Dbp5. As to the kind of experiment: FRET stopped flow, total fluorescence amplitude. The format is binding. An excerpt: FRET stopped flow, total fluorescence amplitude on Dbp5
The target in series [3] is T1, Dbp5. Put plainly: transient Pi release lag phase, phosphate binding protein (PiBiP), stopped flow. In kind it is biochemical. The following applies: no RNA; 30 mM Hepes pH 7.5, 100 mM KCl, 2 mM MgCl2, 2 mM DTT, 25 °C; ATP dissociation constant from lag-phase dependence; also determined by mant-nucleotide competition. From the text: transient Pi release lag phase, phosphate binding protein (PiBiP), stopped flow on Dbp5

Substrate in series [4]: Nc1ncnc2c1ncn2[C@@H]1O[C@H](CO[P@](=O)(O)O[P@](=O)(O)O[P@@](=O)(O)S)[C@@H](O)[C@H]1O
Put plainly: NADH-coupled steady-state ATPase assay. As to conditions: no RNA, 30 mM Hepes pH 7.5, 100 mM KCl, 2 mM MgCl2, 2 mM DTT, 25 °C. The format is biochemical, Saccharomyces cerevisiae. An excerpt: (§1) NADH-coupled steady-state ATPase assay on Dbp5

Substrate in series [5]: Nc1ncnc2c1ncn2[C@@H]1O[C@H](COP(=O)(O)OP(=O)(O)OP(=O)(O)O)[C@@H](O)[C@H]1O
Put plainly: NADH-coupled steady-state ATPase assay. The following applies: no RNA, 30 mM Hepes pH 7.5, 100 mM KCl, 2 mM MgCl2, 2 mM DTT, 25 °C. In kind it is biochemical, Saccharomyces cerevisiae.
Source text: as §1

In general, Kd refers to the equilibrium constant for the complex coming apart. High values mean weaker binding, low ones tighter binding. For the molecule `Nc1ncnc2c1ncn2[C@@H]1O[C@H](COP(=O)(O)OP(=O)(O)O)[C@@H](O)[C@H]1O` [ADP], the Kd at Dbp5 [1] came to 360 µM.

`CNc1ccccc1C(=O)O[C@H]1[C@@H](O)[C@H](n2cnc3c(N)ncnc32)O[C@@H]1CO[P@@](=O)(O)O[P@](=O)(O)OP(=O)(O)O` [mantATP] showed a Kd at Dbp5 [2] of 1 µM. In other words, the single-digit micromolar range.

`Nc1ncnc2c1ncn2[C@@H]1O[C@H](COP(=O)(O)OP(=O)(O)OP(=O)(O)O)[C@@H](O)[C@H]1O` [ATP]: the affinity on Dbp5 [3], expressed as Kd, was 4000 µM.

B1: Dbp5 (Saccharomyces cerevisiae S288C) (protein)
chain: MSDTKRDPADLLASLKIDNEKEDTSEVSTKETVKSQPEKTADSIKPAEKLVPKVEEKKTKQEDSNLISSEYEVKVKLADIQADPNSPLYSAKSFDELGLAPELLKGIYAMKFQKPSKIQERALPLLLHNPPRNMIAQSQSGTGKTAAFSLTMLTRVNPEDASPQAICLAPSRELARQTLEVVQEMGKFTKITSQLIVPDSFEKNKQINAQVIVGTPGTVLDLMRRKLMQLQKIKIFVLDEADNMLDQQGLGDQCIRVKRFLPKDTQLVLFSATFADAVRQYAKKIVPNANTLELQTNEVNVDAIKQLYMDCKNEADKFDVLTELYGLMTIGSSIIFVATKKTANVLYGKLKSEGHEVSILHGDLQTQERDRLIDDFREGRSKVLITTNVLARGIDIPTVSMVVNYDLPTLANGQADPATYIHRIGRTGRFGRKGVAISFVHDKNSFNILSAIQKYFGDIEMTRVPTDDWDEVEKIVKKVLKD
notes: full-length, N-terminal 6xHis tag, expressed in E. coli
Turning to B1, the Km in series [4] was 0.98 (± 0.06) mM; in series [5] it was 1.7 (± 0.2) mM. Moreover, the kcat in series [4] is reported as 0.036 (± 0.001) s^− 1; in series [5] it was 0.043 (± 0.001) s^− 1.

These data come from publication PMC4744555, “Pi Release Limits the Intrinsic and RNA-Stimulated ATPase Cycles of DEAD-Box Protein 5 (Dbp5)” (Journal of Molecular Biology, 2016).
